Results published in US20100136573A1, “DIAGNOSING NEURODEGENERATIVE DISEASES” (priority 2007, published 2010).

Tests used:
HEK293 cells = assay: Inclusion formation and distribution of GFP-TDP-43 constructs, confocal microscopy; type: cell-based; conditions: for cellular distribution / inclusion formation: HEK293, confocal fluorescence microscopy; for cells with compact cytoplasmic inclusions: HEK293, 48 hours after transfection
Procedure: HEK293 cells, grown on glass coverslips, were transfected with 0.3 μg of expression vector (GFP, GFP-TDP-43, GFP-TDP-43-caspase-resistant, GFP-TDP-35, GFP-TDP-25, or GFP-TDP-ΔNR1) by using Lipofectamine 2000 (Invitrogen) according to the manufacturer's instructions then subjected to immunofluorescence analysis 48 hours later. To determine if the cytoplasmic inclusion were insoluble, some cells were treated with 0.2% Triton X-100 prior to fixation, in order to remove soluble protein. To determine if the formation of inclusion was aggresome-dependent, some cells were treated with 1 μM nocodazole (Sigma) for 24 hours after 6 hours of transfection. Finally, to examine if inclusions were ubiquitinated, cells were cotransfected with 0.3 μg of a TDP-43 construct and 0.5 μg HA-ubiquitin, then subjected to immunofluorescence analysis 72 hours later.
(§1) The cultured HEK293 and differentiated M17 cells were fixed with 4% paraformaldehyde in phosphate-buffered saline (PBS) at 4° C. for 15 minutes and permeabilized with PBS-0.5% Triton X-100 for 10 minutes. After blocking with 5% BSA for 1 hour at 37° C., the cells were incubated overnight at 4° C. with mouse monoclonal HA antibody (1:1000, Roche Applied Science), rabbit polyclonal activated caspase-3 antibody (1:250, Cell Signaling), rabbit polyclonal anti-pTDP-43 (which detects phosphorylated S409/S410; 1:1000, COSMO BIO CO., LTD), mouse monoclonal Flag antibody (1:1000, Sigma), rabbit polyclonal M2085 (1:1000), or rabbit polyclonal M2079 (1:1000). After washing, cells were incubated with the Alexa 568-conjugated goat anti-mouse IgG secondary antibody (1:1000, Molecular Probes) or anti-rabbit IgG secondary antibody (1:500, Molecular Probes) at 37° C. for 2 hours. Finally, Hoechst 33258 (1 μg/mL, Invitrogen) was used to stain the nuclei. Images were obtained on a Zeiss LSM 510 META confocal microscope.

[1] = tested on: differentiated M17 neuroblastoma cells; assay: Toxicity assay (LDH release, activated caspase-3 staining); type: cell-based
Procedure: M17 neuroblastoma cells, seeded at 2.5×10^3 cells per well in 24-well plates, were grown in Neurobasal A/B27 medium containing Glutamax (Invitrogen) and 10 μM retinoic acid (Sigma) to induce differentiation. Seven days later, cells were transfected with 0.2 μg of expression vector for 72 hours. The medium was collected, and a LDH assay (Promega) was used to measure LDH levels as an indicator of toxicity. Then, cells were fixed, and immunofluorescent staining was done using an antibody against activated caspase-3 (1:250; Cell signaling) and the nuclear marker, bisbenzimide (Hoechst 33258).
as §1

[2] = target: T1, Recombinant human GST-TDP43 (Homo sapiens, UniProt Q13148); assay: In vitro caspase-3 assay; type: biochemical; conditions: 2 units, 2 and 4 hours, Coomassie staining
T1 construct: Full-length or caspase-3-treated recombinant GST-TDP43 (0.5 μg) was separated by 10% SDS-PAGE
Procedure: Recombinant human GST-TDP43 (2 μg) was incubated with active human recombinant caspase-3 (2 units, CHEMICON International, Inc., Temecula, Calif.) in reaction buffer containing 100 mM NaCl, 50 mM HEPES, 10 mM DTT, 1 mM EDTA, 10% glycerol, 0.1% CHAPS, pH 7.4) at 37° C. for 2 hours or 4 hours, respectively. Cleavage reactions were terminated by addition of 2×SDS loading buffer. Full-length or caspase-3-treated recombinant GST-TDP43 (0.5 μg) was separated by 10% SDS-PAGE and stained with Coomassie blue.

[3] = tested on: TDP-43 exon 9 skipping activity; assay: CFTR mini-gene splicing assay; type: cell-based
Procedure: The CFTR mini-gene splicing assay was conducted as described elsewhere (Pagani et al., J. Biol. Chem., 275(28):21041-21047 (2000) and Ayala et al., FEBS Lett., 580(5):1339-1344 (2006)). In brief, Hela cells were co-transfected with 1 μg of minigene construct and 1 μg of GFP-fusion protein expression vector. […] Then, 2 μg of total RNA was used to synthesize cDNA using the SuperScript III First-Strand Synthesis System (Invitrogen). For the PCR, 2 μL of cDNA was used in a 20 μL of reaction according to the manufacturer's protocol for Taq PCR Core Kit (Qiagen). The amplification conditions consisted of an initial denaturation step at 94° C. for 3 minutes, followed by 30 cycles of 94° C. for 30 seconds, 62° C. for 60 seconds, and 72° C. for 90 seconds.

hnRNPA2 = target: T2, hnRNPA2 (Homo sapiens, UniProt P22626); assay: Co-immunoprecipitation with Flag-tagged hnRNPA2; type: binding; conditions: HeLa cells, probing for GFP
T2 construct: expressed in transfected cells; host or cells: HeLa cells
Procedure: (§2) For co-immunoprecipitation studies, HeLa cells were transfected with 1 or 2 μg of each plasmid. Cells were harvested 48 hours later using Co-IP buffer (50 mM Tris-HCl, pH 7.4, 1 M NaCl, 1% Triton X-100, 5 mM EDTA) containing PMSF as well as protease and phosphatase inhibitors. The lysates were sonicated and centrifuged at 16,000 g for 20 minutes. The protein concentration of supernatants was determined by BCA assay (Thermo Scientific). Supernatant containing 500 μg of total protein was combined with Anti-Flag M2 agarose (Sigma) and incubated overnight at 4° C. with gentle shaking. The agarose was pelleted by centrifugation at 2,500 g for 5 minutes and washed with Co-IP buffer 6 times. Captured protein was eluted from the beads using loading buffer and resolved by SDS-PAGE for Western blot analysis.

Flag-TDP-43 = target: T3, Flag-TDP-43 (Homo sapiens, UniProt Q13148); assay: Co-immunoprecipitation with Flag-TDP-43; type: binding; conditions: HeLa cells, probing for GFP
T3 construct: the exon skipping activity in cells overexpressing full-length TDP-43 was examined; expressed in transfected cells; host or cells: HeLa cells
Procedure: as §2

[4] = medium collected 72 hours after transfection

T3 sequence (Q13148 whole entry): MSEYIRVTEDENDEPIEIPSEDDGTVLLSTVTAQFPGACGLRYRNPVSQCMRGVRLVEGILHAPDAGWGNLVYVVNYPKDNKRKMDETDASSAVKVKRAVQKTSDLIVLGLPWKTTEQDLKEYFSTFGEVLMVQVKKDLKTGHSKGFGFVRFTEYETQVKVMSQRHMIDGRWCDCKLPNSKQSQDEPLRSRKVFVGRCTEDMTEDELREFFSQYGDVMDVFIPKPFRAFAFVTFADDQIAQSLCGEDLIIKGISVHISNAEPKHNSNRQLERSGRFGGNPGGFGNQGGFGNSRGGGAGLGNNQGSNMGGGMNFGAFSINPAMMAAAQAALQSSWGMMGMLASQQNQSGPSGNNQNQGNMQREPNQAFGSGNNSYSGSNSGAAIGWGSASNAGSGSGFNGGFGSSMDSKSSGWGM
T1 sequence (Q13148 whole entry): as above
T2 sequence (P22626 1-341 isoform P22626-2, species assumed): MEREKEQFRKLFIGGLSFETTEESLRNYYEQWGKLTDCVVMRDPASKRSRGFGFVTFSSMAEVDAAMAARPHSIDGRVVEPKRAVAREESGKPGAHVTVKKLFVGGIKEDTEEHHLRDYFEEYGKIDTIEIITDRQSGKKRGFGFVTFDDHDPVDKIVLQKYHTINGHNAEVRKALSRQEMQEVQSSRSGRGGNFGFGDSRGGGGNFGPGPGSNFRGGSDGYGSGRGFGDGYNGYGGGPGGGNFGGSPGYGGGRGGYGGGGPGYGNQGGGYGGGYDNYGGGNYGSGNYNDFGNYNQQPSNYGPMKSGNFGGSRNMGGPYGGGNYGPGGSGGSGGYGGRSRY

Molecule | cellular distribution (HEK293 cells) | inclusion formation (HEK293 cells) | cells with compact cytoplasmic inclusions (HEK293 cells) | LDH release compared to cells transfected with full-length or caspase-resistant TDP-43 [1, 4] | other results
GFP-TDP-ΔNR1: GFP-tagged C-terminal fragment (aa 193-414) lacking the N-terminus and the RRMI (protein, UniProt Q13148 193-414, looked up, fragment, GFP tag, GFP-tagged C-terminal fragment (aa 193-414) lacking the N-terminus and the RRMI) VFVGRCTEDMTEDELREFFSQYGDVMDVFIPKPFRAFAFVTFADDQIAQSLCGEDLIIKGISVHISNAEPKHNSNRQLERSGRFGGNPGGFGNQGGFGNSRGGGAGLGNNQGSNMGGGMNFGAFSINPAMMAAAQAALQSSWGMMGMLASQQNQSGPSGNNQNQGNMQREPNQAFGSGNNSYSGSNSGAAIGWGSASNAGSGSGFNGGFGSSMDSKSSGWGM | diffuse cytoplasmic and nuclear immunoreactivity | no detectable inclusions |  |  | LDH levels compared to cells expressing only GFP [1, 4]: no different
caspase-3: active human recombinant caspase-3 (CHEMICON) (protein) SGISLDNSYKMDYPEMGLCIIINNKNFHKSTGMTSRSGTDVDAANLRETFRNLKYEVRNKNDLTREEIVELMRDVSKEDHSKRSSFVCVLLSHGEEGIIFGTNGPVDLKKITNFFRGDRCRSLTGKPKLFIIQACRGTELDCGIETDSGVDDDMACHKIPVEADFLYAYSTAPGYYSWRNSKDGSWFIQSLCAMLKQYADKLEFMHILTRVNRKVATEFESFSFDATFHAKKQIPCIVSMLTKELYFYH |  |  |  |  | cleavage of recombinant GST-tagged TDP-43 [2]: three distinct fragments of approximately 42, 35, and 25 kD
GFP-TDP-25: GFP-tagged 25 kDa (aa 220-414) C-terminal TDP-43 fragment (protein, left off: large carriers, GFP-tagged 25 kDa (aa 220-414) C-terminal TDP-43 fragment) VFIPKPFRAFAFVTFADDQIAQSLCGEDLIIKGISVHISNAEPKHNSNRQLERSGRFGGNPGGFGNQGGFGNSRGGGAGLGNNQGSNMGGGMNFGAFSINPAMMAAAQAALQSSWGMMGMLASQQNQSGPSGNNQNQGNMQREPNQAFGSGNNSYSGSNSGAAIGWGSASNAGSGSGFNGGFGSSMDSKSSGWGM | cytoplasmic and nuclear distribution |  | ~75 % of cells | significantly higher | nuclear localization of Flag-TDP-43 (HEK293 cells; HEK293 co-transfected with Flag-TDP-43): not appreciably altered; inclusion-positive cells positive for fragmented nuclei and activated caspase-3 ([1]; quantitative analysis, Hoechst and activated caspase-3 staining): ~50%; CFTR exon 9 exclusion (endogenous TDP-43 background) ([3]; HeLa cells cotransfected with CFTR minigene, RT-PCR, compared to GFP): did not differ; exon skipping activity in cells overexpressing Flag-TDP-43 ([3]; cotransfected with CFTR mini-gene and Flag-TDP-43): did not reduce; binding to hnRNPA2 (hnRNPA2): interact with hnRNPA2; binding to Flag-TDP-43 (Flag-TDP-43): only weakly interacted
GFP-TDP-25S409A/S410A: mutant GFP-TDP-25 incapable of being phosphorylated at S409/S410 (protein, left off: large carriers, mutant GFP-TDP-25 incapable of being phosphorylated at S409/S410) VFIPKPFRAFAFVTFADDQIAQSLCGEDLIIKGISVHISNAEPKHNSNRQLERSGRFGGNPGGFGNQGGFGNSRGGGAGLGNNQGSNMGGGMNFGAFSINPAMMAAAQAALQSSWGMMGMLASQQNQSGPSGNNQNQGNMQREPNQAFGSGNNSYSGSNSGAAIGWGSASNAGSGSGFNGGFGSSMDSKAAGWGM |  | formed cytoplasmic inclusions |  | significantly higher | 
GFP-TDP-35: GFP-tagged 35 kDa (aa 90-414) C-terminal TDP-43 fragment (protein, UniProt Q13148 90-414, looked up, fragment, GFP tag, GFP-tagged 35 kDa (aa 90-414) C-terminal TDP-43 fragment) ASSAVKVKRAVQKTSDLIVLGLPWKTTEQDLKEYFSTFGEVLMVQVKKDLKTGHSKGFGFVRFTEYETQVKVMSQRHMIDGRWCDCKLPNSKQSQDEPLRSRKVFVGRCTEDMTEDELREFFSQYGDVMDVFIPKPFRAFAFVTFADDQIAQSLCGEDLIIKGISVHISNAEPKHNSNRQLERSGRFGGNPGGFGNQGGFGNSRGGGAGLGNNQGSNMGGGMNFGAFSINPAMMAAAQAALQSSWGMMGMLASQQNQSGPSGNNQNQGNMQREPNQAFGSGNNSYSGSNSGAAIGWGSASNAGSGSGFNGGFGSSMDSKSSGWGM | cytoplasmic and nuclear distribution |  | ~25 % of cells |  | 
